# Data reported in article PMC3852957.
# How the values were obtained:
# [1] = molecular target: human GLP-1 receptor (human) (UniProt P43220)
# [2] = molecular target: human serum albumin (human) (UniProt P02768); experiment: SPR; Biacore; 500 resonance units of albumin coupled to a CM5 chip; GAlbudAb flowed in HBS-P+ buffer at 39 nM to 5 μM; KD by the 1:1 interaction model in BiaEval software
# [3] = molecular target: rat serum albumin (rat) (UniProt P02770); experiment: as above
# [4] = molecular target: cynomolgus monkey serum albumin (cynomolgus monkey) (UniProt A2V9Z4); experiment: as above
# Sequence of UniProt A2V9Z4 (A2V9Z4 25-608): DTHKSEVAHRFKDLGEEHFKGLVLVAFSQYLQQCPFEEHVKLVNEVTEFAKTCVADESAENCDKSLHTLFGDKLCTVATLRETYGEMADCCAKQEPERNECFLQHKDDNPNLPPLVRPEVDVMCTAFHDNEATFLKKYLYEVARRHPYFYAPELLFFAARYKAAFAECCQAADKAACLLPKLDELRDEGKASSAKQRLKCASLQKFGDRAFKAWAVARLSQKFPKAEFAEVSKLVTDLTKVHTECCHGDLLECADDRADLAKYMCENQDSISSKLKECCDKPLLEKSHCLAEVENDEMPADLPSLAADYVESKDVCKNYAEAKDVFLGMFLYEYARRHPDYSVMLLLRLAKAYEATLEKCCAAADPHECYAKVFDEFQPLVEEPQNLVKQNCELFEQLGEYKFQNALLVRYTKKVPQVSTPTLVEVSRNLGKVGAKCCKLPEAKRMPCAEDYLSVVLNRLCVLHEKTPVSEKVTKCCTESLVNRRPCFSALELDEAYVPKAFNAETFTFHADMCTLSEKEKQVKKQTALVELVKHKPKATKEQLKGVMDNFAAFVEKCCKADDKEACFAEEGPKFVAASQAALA
# Sequence of UniProt P43220 (P43220 24-463): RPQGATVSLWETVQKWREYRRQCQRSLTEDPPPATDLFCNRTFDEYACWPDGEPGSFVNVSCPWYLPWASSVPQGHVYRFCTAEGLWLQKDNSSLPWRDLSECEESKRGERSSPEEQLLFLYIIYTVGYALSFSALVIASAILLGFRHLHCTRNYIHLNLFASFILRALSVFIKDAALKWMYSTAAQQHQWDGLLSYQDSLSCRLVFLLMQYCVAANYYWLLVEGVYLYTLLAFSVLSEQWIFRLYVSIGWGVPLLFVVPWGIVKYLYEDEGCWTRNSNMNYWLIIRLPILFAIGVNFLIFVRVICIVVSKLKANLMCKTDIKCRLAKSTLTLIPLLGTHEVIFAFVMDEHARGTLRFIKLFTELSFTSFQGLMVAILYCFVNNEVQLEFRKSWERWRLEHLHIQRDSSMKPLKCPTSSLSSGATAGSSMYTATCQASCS
# Sequence of UniProt P02768 (P02768 25-609): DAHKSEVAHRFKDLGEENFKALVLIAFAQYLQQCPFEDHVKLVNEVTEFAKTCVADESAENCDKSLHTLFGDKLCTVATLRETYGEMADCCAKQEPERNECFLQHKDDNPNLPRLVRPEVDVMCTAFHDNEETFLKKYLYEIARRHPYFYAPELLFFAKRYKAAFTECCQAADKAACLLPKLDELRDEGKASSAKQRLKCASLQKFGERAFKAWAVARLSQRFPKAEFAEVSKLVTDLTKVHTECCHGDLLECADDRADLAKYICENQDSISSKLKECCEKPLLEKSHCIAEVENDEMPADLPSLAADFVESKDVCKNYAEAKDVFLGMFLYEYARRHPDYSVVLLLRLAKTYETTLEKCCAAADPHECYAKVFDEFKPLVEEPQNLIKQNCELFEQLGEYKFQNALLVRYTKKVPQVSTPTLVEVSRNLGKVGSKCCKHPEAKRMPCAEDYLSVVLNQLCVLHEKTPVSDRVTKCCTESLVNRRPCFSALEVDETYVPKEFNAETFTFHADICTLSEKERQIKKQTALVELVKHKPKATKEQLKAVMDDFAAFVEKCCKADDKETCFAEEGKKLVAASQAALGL
# Sequence of UniProt P02770 (P02770 25-608): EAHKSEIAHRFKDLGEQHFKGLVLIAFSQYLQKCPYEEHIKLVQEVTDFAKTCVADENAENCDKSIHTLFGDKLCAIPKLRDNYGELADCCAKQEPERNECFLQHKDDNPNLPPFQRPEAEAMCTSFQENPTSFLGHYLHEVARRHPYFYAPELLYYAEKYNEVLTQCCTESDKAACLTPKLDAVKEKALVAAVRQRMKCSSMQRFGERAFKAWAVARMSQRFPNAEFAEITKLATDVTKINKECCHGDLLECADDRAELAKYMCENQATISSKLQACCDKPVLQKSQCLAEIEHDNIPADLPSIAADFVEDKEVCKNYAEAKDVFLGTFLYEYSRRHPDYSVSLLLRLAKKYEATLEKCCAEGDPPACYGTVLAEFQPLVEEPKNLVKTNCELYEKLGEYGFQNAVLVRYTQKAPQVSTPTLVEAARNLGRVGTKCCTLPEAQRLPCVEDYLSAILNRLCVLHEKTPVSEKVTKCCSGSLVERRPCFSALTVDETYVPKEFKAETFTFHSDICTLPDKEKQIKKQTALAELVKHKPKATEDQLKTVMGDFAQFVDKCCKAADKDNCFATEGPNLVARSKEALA
cAMP-driven luciferase reporter gene expression in CHO cells stably transfected with human GLP-1 receptor (EC50) [1],Kd [2],Kd [3],Kd [4],Substance
0.1 nM,143 nM,275 nM,395 nM,"GAlbudAb, DPP-IV resistant GLP-1 (7–36, A8G) fused to the DOM7h-14 AlbudAb"
0.1 nM,–,–,–,GLP-1 (7–36) peptide
